The test system of the data set is Escherichia coli TOP10. Kind of data set: shrunken log2 fold change of peptide-encoding DNA abundance (4.5 h post-induction vs induction); higher = less antimicrobial activity (less host growth inhibition). The note with it: time post-induction: 4.5 h; library: site-saturation at positions 5, 18, 19, 20.
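Also: peptides expressed intracellularly from a pBAD plasmid library in pooled LB shake-flask culture, induced with 0.3% L-arabinose, DNA abundance read by NGS, three biological replicates, DESeq2 with apeglm shrinkage.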

Regarding RRIRCRPPRLPRPRPRPLITPRP, the “shrunken log2 fold change” value is -0.125.
The figure for RRIRNRPPRLPRPRPRPGASPRP is 0.412.
For the sequence RRIRQRPPRLPRPRPRPRTFPRP, the “shrunken log2 fold change” value is -0.471.
The figure for RRIRCRPPRLPRPRPRPGNTPRP is -0.205; for RRIRWRPPRLPRPRPRPRMPPRP it is 0.395.
Then RRIRGRPPRLPRPRPRPCDDPRP, with 1.24; and RRIRMRPPRLPRPRPRPPLFPRP, with 0.919; and RRIRYRPPRLPRPRPRPYRFPRP, with -0.168.
The figure for RRIRYRPPRLPRPRPRPPCAPRP is 2.51.
As to RRIRVRPPRLPRPRPRPISNPRP, the “shrunken log2 fold change” value was -0.512.
The figure for RRIRARPPRLPRPRPRPIWGPRP is 0.302; for RRIRPRPPRLPRPRPRPMKIPRP it is 0.0483.
Then RRIRNRPPRLPRPRPRPGFCPRP, with 0.164; and RRIRERPPRLPRPRPRPFYAPRP, with -0.526.
The figure for RRIRWRPPRLPRPRPRPLMRPRP is 0.858.
RRIRERPPRLPRPRPRPERMPRP: the “shrunken log2 fold change” value is -0.0648.
The figure for RRIRIRPPRLPRPRPRPMRVPRP is 0.109; for RRIRKRPPRLPRPRPRPMYDPRP it is -0.127.
Then RRIRFRPPRLPRPRPRPVSPPRP, with -0.172; and RRIRYRPPRLPRPRPRPHIVPRP, with -0.102.
Then RRIRPRPPRLPRPRPRPPGSPRP, with 0.0805; and RRIRRRPPRLPRPRPRPNVYPRP, with 0.0361; and RRIRGRPPRLPRPRPRPTRHPRP, with 0.764.
Consider RRIRSRPPRLPRPRPRPDLWPRP, for which the “shrunken log2 fold change” value is 0.349.
The figure for RRIRGRPPRLPRPRPRPTHAPRP is 1.3.
Consider RRIRERPPRLPRPRPRPAKGPRP, for which the “shrunken log2 fold change” value is -0.321.
Consider RRIRFRPPRLPRPRPRPMQYPRP, for which the “shrunken log2 fold change” value was -0.683.
Take RRIRDRPPRLPRPRPRPEQLPRP: the “shrunken log2 fold change” value was determined as 0.104.
Then RRIRRRPPRLPRPRPRPIMHPRP, with -0.094; and RRIRRRPPRLPRPRPRPWTVPRP, with -0.00497.
Then RRIRKRPPRLPRPRPRPKTSPRP, with 0.489.
Then RRIRCRPPRLPRPRPRPYTVPRP, with -0.207; and RRIRWRPPRLPRPRPRPSVSPRP, with 0.104.
Regarding RRIRYRPPRLPRPRPRPVADPRP, the “shrunken log2 fold change” value was -0.127.
Regarding RRIRSRPPRLPRPRPRPSGKPRP, the “shrunken log2 fold change” value is -0.202.
RRIRNRPPRLPRPRPRPWDNPRP: the “shrunken log2 fold change” value was -0.0545.
Then RRIRWRPPRLPRPRPRPEVFPRP, with 1.35.
The figure for RRIRIRPPRLPRPRPRPKDYPRP is -0.603.
The figure for RRIRDRPPRLPRPRPRPVRQPRP is 0.000541.
Turning to RRIRTRPPRLPRPRPRPYLLPRP, the “shrunken log2 fold change” value was -0.654.
Then RRIRMRPPRLPRPRPRPIHFPRP, with -0.0141.
Then RRIRIRPPRLPRPRPRPELSPRP, with -0.476; and RRIRYRPPRLPRPRPRPEAQPRP, with 0.151; and RRIRLRPPRLPRPRPRPCLWPRP, with -0.000705.
For the sequence RRIRQRPPRLPRPRPRPQFTPRP, the “shrunken log2 fold change” value was -0.177.
Then RRIRGRPPRLPRPRPRPGFMPRP, with 0.488; and RRIRARPPRLPRPRPRPYMYPRP, with -0.635.
Regarding RRIRARPPRLPRPRPRPQSKPRP, the “shrunken log2 fold change” value is 0.0474.
Then RRIRQRPPRLPRPRPRPACGPRP, with 0.217.
The figure for RRIRKRPPRLPRPRPRPPQEPRP is 0.0788; for RRIRMRPPRLPRPRPRPLCHPRP it is 0.061; for RRIRCRPPRLPRPRPRPNYAPRP it is -0.0784.
As for RRIRKRPPRLPRPRPRPARTPRP, the “shrunken log2 fold change” value came out at 0.476.
Then RRIRTRPPRLPRPRPRPFRVPRP, with -0.108; and RRIRFRPPRLPRPRPRPHWHPRP, with -0.444; and RRIRTRPPRLPRPRPRPFAMPRP, with -0.348.
The figure for RRIRNRPPRLPRPRPRPRILPRP is -0.0548; for RRIRLRPPRLPRPRPRPPDRPRP it is 0.467; for RRIRQRPPRLPRPRPRPRNAPRP it is 0.483.
The figure for RRIRYRPPRLPRPRPRPKHMPRP is -0.991; for RRIRGRPPRLPRPRPRPLWRPRP it is 0.625; for RRIRFRPPRLPRPRPRPVSSPRP it is -0.371.
Regarding RRIRQRPPRLPRPRPRPHADPRP, the “shrunken log2 fold change” value is -0.43.
The figure for RRIRLRPPRLPRPRPRPLHQPRP is -0.297; for RRIRMRPPRLPRPRPRPETLPRP it is -0.0225; for RRIRNRPPRLPRPRPRPDNDPRP it is -0.579.
Then RRIRRRPPRLPRPRPRPTKRPRP, with 0.145; and RRIRTRPPRLPRPRPRPDYLPRP, with -1.61.
Then RRIRVRPPRLPRPRPRPMFYPRP, with -0.725; and RRIRSRPPRLPRPRPRPGCYPRP, with -0.173.
As to RRIRVRPPRLPRPRPRPQGIPRP, the “shrunken log2 fold change” value worked out at 0.0752.
Then RRIRQRPPRLPRPRPRPYEAPRP, with -0.0514; and RRIRRRPPRLPRPRPRPNWEPRP, with -0.0176; and RRIRLRPPRLPRPRPRPEGGPRP, with 0.0449.
Then RRIRGRPPRLPRPRPRPGLWPRP, with 1.03; and RRIRERPPRLPRPRPRPLCFPRP, with -0.313.
The figure for RRIRFRPPRLPRPRPRPFAHPRP is -0.0794.
Regarding RRIRKRPPRLPRPRPRPGRHPRP, the “shrunken log2 fold change” value was found to be 0.227.
In the case of RRIRPRPPRLPRPRPRPMIPPRP, the “shrunken log2 fold change” value is -0.124.
The figure for RRIRSRPPRLPRPRPRPALSPRP is 0.497.
Then RRIRNRPPRLPRPRPRPCFEPRP, with 0.00026.
Then RRIRARPPRLPRPRPRPLFNPRP, with -0.064.
As for RRIRSRPPRLPRPRPRPHGDPRP, the “shrunken log2 fold change” value worked out at 0.043.
Then RRIRNRPPRLPRPRPRPLTAPRP, with -0.221; and RRIRNRPPRLPRPRPRPSWKPRP, with 0.0635.
The figure for RRIRDRPPRLPRPRPRPAGFPRP is 0.0112; for RRIRQRPPRLPRPRPRPCNIPRP it is -0.646; for RRIRPRPPRLPRPRPRPVVPPRP it is 0.134.
Consider RRIRWRPPRLPRPRPRPWCLPRP, for which the “shrunken log2 fold change” value is -0.334.
Then RRIRGRPPRLPRPRPRPCHQPRP, with -0.0488.
The figure for RRIRERPPRLPRPRPRPVMAPRP is -0.0537.

Values taken from the supplement of paper PMC9112550, “Optimization of the antimicrobial peptide Bac7 by deep mutational scanning” (BMC Biology, 2022).
